{"source": "patent US7557181B2", "about": "“Pan-HER antagonists and methods of use” (Molecular Logix, Inc., priority 2005, dated 2009)", "assay_type_in_all_cases": "cell-based", "key": {"[1]": {"tested_on": "MCF-7 cells (human breast cancer cell line that express HER2 and HER3)", "assay": "MCF-7 cell proliferation stimulation assay (WST-1)", "conditions": "serum-free, 72 hours, FIG. 4", "procedure": "MCF-7 cells were obtained from the American Type Culture Collection (ATCC). Stock cultures of MCF-7 were maintained in Eagle's MEM supplemented with 1% ITS-X (Invitrogen) and 10% fetal bovine serum. For proliferation assays, MCF-7 cells were transferred to serum-free medium (SFM) for 24 hours and then trypsinized and suspended at 1E5 cells/mL in SFM. Fifty microliters of cell suspension (5000 cells) were plated per well in 96 well microtiter plates. Serial dilutions of HER ligands or mutant proteins were prepared at twice the final concentration in SFM and 50 ul was added to wells, bringing the final volume to 100 ul at the desired final concentration. Plates were incubated for 72 hours at 37 C in a humidified 5% CO2 atmosphere. Cell proliferation was determined by addition of 10 ul/well of WST-1 Cell Proliferation Reagent (Roche Applied Sciences, Indianapolis, Ind.) for the last three hours of the proliferation period."}, "EGFR": {"target": "T1, EGFR (Homo sapiens, UniProt P00533)", "T1 construct": "Autophosphorylation of EGFR in A431 cells, an epithelial cancer cell line; endogenous in cells; host or cells: A431 cells", "assay": "Autophosphorylation of EGFR in A431 cells", "conditions": "epithelial cancer cell line, FIG. 2"}, "[2]": {"tested_on": "HER5 cells (mouse fibroblast cells that overexpress human EGFR)", "assay": "HER5 cell proliferation stimulation assay (WST-1)", "conditions": "serum-free, 48 hour proliferation period, FIG. 3", "procedure": "Hung (MD Anderson Cancer Center). Stock cultures of HER5 were propagated in D-MEM/F12 medium containing 10% fetal bovine serum, 100 units/ml of penicillin and 100 ug/ml of streptomycin in a water-jacketed incubator at 37° C. in a humidified 5% CO2 atmosphere. For HER5 proliferation assays, the cells were changed into DMEM/F12 without serum for 24 hours. Cells were then trypsinized and suspended at 1E5 cells/ml. […] Fifty microliters of cell suspension (5000 cells) were added to appropriate wells bringing the total volume to 100 ul at the desired concentrations. Plates were incubated for a 48 hour proliferation period. Cell proliferation was determined by addition of 10 ul/well of WST-1 Cell Proliferation Reagent (Roche Applied Sciences, Indianapolis, Ind.) for the last three hours of the proliferation period. WST-1 is a tetrazolium salt that is cleaved to formazan dye by mitochondrial dehydrogenases in viable cells. The amount of formazan was measured at 450 nm using a microplate reader (Dynex Technologies) with MRX Revelation software."}}, "data": [{"molecule": "heregulin (protein) SHLVKCAEKEKTFCVNGGECFMVKDLSNPSRYLCKCPNEFTGDRCQNYVMASFYKHLGIEFMEAEELY", "values": [{"measurement": "stimulation of MCF-7 cells (proliferation)", "setting": "[1]", "result": "can be stimulated"}]}, {"molecule": "BiRegulin: chimeric EGF homolog, amino terminal residues (NSDSE) of EGF replaced with corresponding residues of HRGβ1 (SHLVK) (protein) HHHHHHIEGRSHLVKCPLSHDGYCLHDGVCMYIEALDKYACNCVVGYIGERCQYRDLKWWELR", "values": [{"measurement": "stimulation of autophosphorylation of EGFR", "setting": "EGFR", "result": "stimulated"}, {"measurement": "stimulation of HER5 cells (proliferation)", "setting": "[2]", "result": "can be stimulated"}, {"measurement": "stimulation of MCF-7 cells (proliferation)", "setting": "[1]", "result": "can be stimulated"}]}, {"molecule": "BiRV35EG39L: BiRegulin with glycine 39 replaced by leucine and valine 35 replaced with glutamate (protein) HHHHHHIEGRSHLVKCPLSHDGYCLHDGVCMYIEALDKYACNCVEGYILERCQYRDLKWWELR", "values": [{"measurement": "stimulation of autophosphorylation of EGFR", "setting": "EGFR", "result": "does not stimulate autophosphorylation"}, {"measurement": "stimulation of HER5 cells (proliferation)", "setting": "[2]", "result": "Neither cell line is stimulated"}, {"measurement": "stimulation of MCF-7 cells (proliferation)", "setting": "[1]", "result": "Neither cell line is stimulated"}]}]}
